How the values were obtained:
[1] = target: GST-tagged version of human FcγRIIIA (human) (UniProt P08637); assay: AlphaLISA vs biotin-huIgG, supernatant, round 1
[2] = target: GST-tagged version of human FcγRIIIA (human) (UniProt P08637); assay: AlphaLISA vs biotin-huIgG, supernatant, round 2
[3] = target: GST-tagged version of human FcγRIIIA (human) (UniProt P08637); assay: AlphaLISA vs biotin-huIgG, supernatant, round 3

Sequence of GST-tagged version of human FcγRIIIA (human) (P08637 17-208 limits assumed): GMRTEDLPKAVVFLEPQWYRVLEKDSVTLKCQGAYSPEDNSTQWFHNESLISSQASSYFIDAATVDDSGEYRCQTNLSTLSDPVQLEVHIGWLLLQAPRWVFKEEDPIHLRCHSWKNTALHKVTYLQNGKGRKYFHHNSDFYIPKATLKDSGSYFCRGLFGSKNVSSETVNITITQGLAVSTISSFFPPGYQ

Row | Substance | % inhibition [1] | Alpha signal [1] | % inhibition [2] | Alpha signal [2] | % inhibition [3] | Alpha signal [3]
1 | scFv-Fc/Fc, K290Q in scFv-Fc (Fc fusion) | 50.8% | 37400 | 54.4% | 36700 | 48.8% | 40300
2 | scFv-Fc/Fc, T307E in scFv-Fc (Fc fusion) | 71.5% | 21700 | 76.4% | 18900 | 67.2% | 25800
3 | scFv-Fc/Fc, E258V in scFv-Fc (from UniProt P0DOX5 218-449; P0DOX5 218-449) (Fc fusion) | 69.3% | 23300 | 75.8% | 19500 | 71.5% | 22400
4 | scFv-Fc/Fc, K334V + D413N in dummy Fc (Fc fusion) | 73.4% | 20200 | 73.4% | 21400 | 67.6% | 25400
5 | scFv-Fc/Fc, E294L in scFv-Fc (Fc fusion) | – | 24300 | – | 22900 | 76.8% | 18200
6 | scFv-Fc/Fc, K246E in dummy Fc (Fc fusion) | 22.4% | 58900 | 22.2% | 62600 | 32.1% | 53300
7 | scFv-Fc/Fc, K334L in dummy Fc (Fc fusion) | 64.9% | 26700 | 70.9% | 23400 | 68.1% | 25100
8 | scFv-Fc/Fc, L309E in scFv-Fc (Fc fusion) | 67% | – | 73.7% | 21100 | 67.6% | –
9 | scFv-Fc/Fc, F243V in scFv-Fc (Fc fusion) | 45.1% | 41700 | 47.7% | 42100 | 48.6% | 40400
10 | scFv-Fc/Fc, R255N in dummy Fc (Fc fusion) | 37.4% | 47500 | 39.6% | 48500 | 43.3% | 44500
11 | scFv-Fc/Fc, A330V in dummy Fc (Fc fusion) | 25.8% | 56400 | 32.7% | 54100 | 25.6% | 58400
12 | scFv-Fc/Fc, M252D in dummy Fc (Fc fusion) | 20.4% | 60500 | 27.8% | 58100 | 23.3% | 60300
13 | scFv-Fc/Fc, Y296L in scFv-Fc (Fc fusion) | 23.1% | 58500 | 24.7% | 60600 | 18.2% | 64300
14 | scFv-Fc/Fc, S298A in scFv-Fc (Fc fusion) | 76.5% | 17900 | 68.5% | 25300 | 65% | 27500
15 | scFv-Fc/Fc, A330M in scFv-Fc (Fc fusion) | 27.1% | 55400 | 36.6% | 51000 | 26.2% | 58000
16 | scFv-Fc/Fc, K248L in dummy Fc (Fc fusion) | 67.5% | 24700 | 71.3% | 23100 | 68.4% | 24800

The next lines start with the values.

Row | % inhibition [1] | Alpha signal [1] | % inhibition [2] | Alpha signal [2] | % inhibition [3] | Alpha signal [3] | Substance
17 | 72.9% | 20600 | 77.4% | 18200 | 76.1% | 18800 | scFv-Fc/Fc, F243L in dummy Fc (Fc fusion)
18 | 64.4% | 27100 | 66.5% | 26900 | 61.6% | 30200 | scFv-Fc/Fc, K334V in dummy Fc (Fc fusion)
19 | 24.8% | 57100 | – | 55900 | – | 54600 | scFv-Fc/Fc, K290S in scFv-Fc (from UniProt P0DOX5 218-449; P0DOX5 218-449) (Fc fusion)
20 | 47% | 40300 | 55.3% | 35900 | 57.4% | 33400 | scFv-Fc/Fc, V302Q in dummy Fc (Fc fusion)
21 | 89.8% | 7790 | 92.2% | 6260 | 91.1% | 7020 | scFv-Fc/Fc, L235S in scFv-Fc (Fc fusion)
22 | 58% | 31900 | 67.5% | 26100 | 68.8% | 24500 | scFv-Fc/Fc, S239N in scFv-Fc (Fc fusion)
23 | 32% | 51700 | 31.9% | 54800 | 28.2% | 56500 | scFv-Fc/Fc, K334A in scFv-Fc (Fc fusion)
24 | 21.9% | 59300 | 38% | 49800 | 22.3% | 61000 | scFv-Fc/Fc, R255S in dummy Fc (Fc fusion)
25 | 21.4% | 59700 | 30.8% | 55600 | 21.4% | 61800 | scFv-Fc/Fc, L309C in dummy Fc (Fc fusion)
26 | 23.1% | 58500 | 31.1% | 55400 | 23.5% | 60100 | scFv-Fc/Fc, K290F in dummy Fc (Fc fusion)
27 | 25.8% | 56400 | 27.3% | 58400 | 36.6% | 49800 | scFv-Fc/Fc, A339T in dummy Fc (Fc fusion)
28 | – | 54800 | – | 56600 | – | 57100 | scFv-Fc/Fc, H268E in scFv-Fc (from UniProt P0DOX5 218-449; P0DOX5 218-449) (Fc fusion)
29 | – | 32500 | – | 34800 | – | 33700 | scFv-Fc/Fc, S239E in dummy Fc (Fc fusion)
30 | 47.5% | 39900 | 58.4% | 33500 | 67.6% | 25500 | scFv-Fc/Fc, A287F in scFv-Fc (from UniProt P0DOX5 218-449; P0DOX5 218-449) (Fc fusion)
31 | 20.6% | 60300 | 28% | 57900 | 21.6% | 61600 | scFv-Fc/Fc, E258S in dummy Fc (Fc fusion)
32 | 25.8% | 56400 | – | 57500 | – | 57300 | scFv-Fc/Fc, K288I in scFv-Fc (from UniProt P0DOX5 218-449; P0DOX5 218-449) (Fc fusion)
33 | – | 43800 | – | 44500 | – | 42800 | scFv-Fc/Fc, K246V in dummy Fc (Fc fusion)
34 | 29.1% | 53900 | 34.6% | 52600 | 24.2% | 59500 | scFv-Fc/Fc, K290W in scFv-Fc (Fc fusion)
35 | 60.6% | 30000 | 73.1% | 21700 | 72.8% | 21400 | scFv-Fc/Fc, F243I in scFv-Fc (Fc fusion)
36 | – | 22300 | 75.4% | 19800 | – | 24400 | scFv-Fc/Fc, K334M in scFv-Fc (Fc fusion)
37 | 26.7% | 55700 | – | 53100 | – | 50300 | scFv-Fc/Fc, K288T in dummy Fc (Fc fusion)
38 | 84% | 12200 | 87.1% | 10400 | 82.9% | 13400 | scFv-Fc/Fc, S298C in scFv-Fc (Fc fusion)
39 | 23% | 58500 | 23.5% | 61500 | 25.7% | 58400 | scFv-Fc/Fc, I253V in dummy Fc (Fc fusion)
